In patent publication US20190300610A1:

Experiments:
Assay in all cases: reported; reported KD
mFcRn = molecular target: mFcRn
mFcgRIII = molecular target: mFcgRIII
mFcgRIV = molecular target: mFcgRIV
mFcgRIIb = molecular target: mFcgRIIb

Row | Kd (mFcRn) | Kd (mFcgRIII) | Kd (mFcgRIV) | Kd (mFcgRIIb) | Substance
1 | 116 nM | 21000 nM | 26000 nM | 11000 nM | hIgG4
2 | 490 nM | 1460 nM | 34.5 nM | 2390 nM | mIgG2a
3 | 140 nM | – | – | – | mIgG3
4 | 545 nM | 1560 nM | 59 nM | 448 nM | mIgG2b
5 | 230 nM | 1300 nM | 170 nM | 700 nM | hIgG3
6 | 63 nM | 9700 nM | – | 7900 nM | hIgG2
7 | 72 nM | 9300 nM | 280 nM | 1100 nM | hIgG1
8 | 1160 nM | 3200 nM | – | 301 nM | mIgG1
